# What was measured:
# [1] = target: T1, recombinant full-length human alpha synuclein monomer (human, UniProt P37840 1-140); assay: SPR, Biacore T200, as in Example 3; full-length IgG4P injected; human monomer
# Method: (§1) Interaction kinetics were determined by using surface plasmon resonance technology on a Biacore T200 instrument. Three different ligands including recombinant full-length human alpha synuclein monomer, purified recombinant human alpha synuclein fibrils, and purified recombinant mouse alpha synuclein fibrils, prepared as described herein, were each immobilized on three different flow cells of a CM5 chip surface using amine-coupling chemistry. The three ligands were prepared in 10 mM NaAc, pH 3.5, and immobilized onto separate flow cell surfaces to reach an immobilization level of about 30 response units (RU) for alpha synuclein monomer, about 40 RU for human alpha synuclein fibrils, and about 300 RU for mouse alpha synuclein fibrils respectively, at a flow rate of 10 μI/min. The buffer HBS-EP+(GE healthcare Bio-Sciences AB) was used as running buffer for both ligand immobilization and kinetics assay. […] The surface was regenerated by one injection of 50 mM HCl for 90 s at 10 μI/min, and another injection of 50 mM HCl for 60 s at 10 μI/min. The data were analyzed using the Biacore T200 evaluation software (version 3.0) using the bivalent analyte model with assumed no bulk contribution (RI=0) and global Rmax for IgG format, and 1:1 model with flexible bulk contribution (local RI) and global Rmax.
# [2] = target: T2, purified recombinant human alpha synuclein fibrils (human, UniProt P37840 1-140); assay: cell-based or functional assay
# [3] = target: T1, recombinant full-length human alpha …; assay: SPR, Biacore T200, as in Example 3; full-length IgG4P injected
# Method: as §1
# [4] = target: T2, purified recombinant human alpha …; assay: as above
# Method: as §1
# [5] = target: T2, purified recombinant human alpha …; assay: affinity for human alpha synuclein fibrils, IgG4P; method not given; Table 6 humanization screen, separate from Table 7B
# [6] = target: T2, purified recombinant human alpha …; assay: SPR, Biacore T200, as in Example 3; full-length IgG4P injected; human fibril
# [7] = target: T1, recombinant full-length human alpha …; assay: kinetics table of Example 9 (method not named there; same values as Table 7B, SPR)
# [8] = target: T2, purified recombinant human alpha …; assay: as above
# [9] = target: T2, purified recombinant human alpha …; assay: cell-based or functional assay; remark: listed apart in the source
# [10] = target: T2, purified recombinant human alpha …; assay: affinity for human alpha synuclein fibrils, IgG4P; method not given
# [11] = target: T3, monoclonal 6470 rabbit Fab; assay: competitive SPR: 6470 Fab pre-incubated with peptide, injected over immobilised human alpha synuclein monomer and fibrils; %inhibition
# T3 construct: Fab heavy chain entry carries a C-terminal His tag
# Method: (§2) Recombinant human alpha synuclein monomer and pre-formed alpha synuclein fibrils were immobilized on a CM5 chip using a Biacore 3000 instrument (GE Healthcare). Following activation of the carboxymethyl dextran surface by injection of 100 μl of a fresh 1:1 (v/v) mixture of 50 mM N-hydroxysuccimide and 200 mM 1-ethyl-3-(3-dimethylaminopropyl)-carbodiimide at a flow rate of 10 μl/min HBS-EP (GE Healthcare) as running buffer, coupling was achieved by injecting 100 μl of monomer and fibrils, at 5 μM in 10 mM acetate pH 5.0, over separate flow cells. A reference flow cell was activated in the same manner and then all flow cell surfaces were deactivated with a 50 μl pulse of 1 M ethanolamine HCl pH 8.5.
# (§3) Peptide solutions were prepared in running buffer at 100 μM and a peptide blank control prepared as a 1 in 100 dilution of DMSO in running buffer. […] Sensograms were recorded for each sample by injecting 30 μl of the mixture at 10 μl/min and recording a report point 5 seconds before the end of the injection. […] Control cycles were alternated with peptide cycles.
# [12] = target: T3, monoclonal 6470 rabbit Fab; assay: competitive SPR (Biacore 3000): 1 µM peptide with 50 nM Fab; competitor immobilised human alpha synuclein monomer
# Method: as §2, §3
# [13] = target: T3, monoclonal 6470 rabbit Fab; assay: competitive SPR (Biacore 3000): 1 µM peptide with 50 nM Fab; competitor immobilised human alpha synuclein fibrils
# Method: as §2, §3
# [14] = target: purified recombinant human alpha synuclein fibrils (human, UniProt P37840 1-140); assay: affinity for human alpha synuclein fibrils, IgG4P; method not given; remark: listed apart in the source
# T3 sequence (V domain, as listed by the source): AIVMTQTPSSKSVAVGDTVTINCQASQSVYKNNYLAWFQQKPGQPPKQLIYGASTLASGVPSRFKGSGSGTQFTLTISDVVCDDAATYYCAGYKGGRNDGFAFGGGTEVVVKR
binder,measurement,setting,value
"6470gL3gH23 IgG4P (antibody, V domains shown, Full-length humanized human IgG4P; also called VR6470 gL3) VH: EVQLLESGGGLVQPGGSLRLSCAVSGIDLSSHDMYWVRQAPGKGLEYIGAIYASGSTYYASWAKGRFTISRDNSKNTVYLQMNSLRAEDTAVYYCARIHYGNSGGLWGQGTLVTVSS VL: DIQMTQSPSSLSASVGDRVTITCQASQSVYKNNYLAWFQQKPGKAPKQLIYGASTLASGVPSRFSGSGSGTQFTLTISSLQPEDFATYYCAGYKGGRNDGFAFGGGTKVEIKR",Kd,[1],20.1 nM
same,"IC50, inhibition of alpha synuclein aggregation induced by fibrils in HEK293F cells expressing alpha synuclein (% pSer129+ cells)",[2],< 5 nM
same,koff,[3],0.0242 s⁻¹
same,kon,[3],1.2e+06 M⁻¹ s⁻¹
same,koff,[4],0.000142 s⁻¹
same,kon,[4],855000 M⁻¹ s⁻¹
same,Kd,[5],0.148 nM
same,Kd,[6],0.166 nM
"6470gL3gH36 IgG4P (antibody, V domains shown, Full-length humanized human IgG4P; also called VR6470 gL3; VR6470) VH: EVQLLESGGGLVQPGGSLRLSCAVSGIDLSSHDMYWVRQAPGKGLEYIGAIYASGSTYYASWAKGRFTISRDSSKNTLYLQMNSLRAEDTAVYYCARIHYGNSGGLWGQGTLVTVSS VL: DIQMTQSPSSLSASVGDRVTITCQASQSVYKNNYLAWFQQKPGKAPKQLIYGASTLASGVPSRFSGSGSGTQFTLTISSLQPEDFATYYCAGYKGGRNDGFAFGGGTKVEIKR",Kd,[7],15.1 nM
same,koff,[7],0.0174 s⁻¹
same,kon,[7],1.15e+06 M⁻¹ s⁻¹
same,Kd,[8],0.298 nM
same,koff,[8],0.000317 s⁻¹
same,kon,[8],1.07e+06 M⁻¹ s⁻¹
same,"IC50 (nM), HEK cell-based aggregation assay",[9],< 5 nM
same,"IC50, inhibition of alpha synuclein aggregation induced by fibrils in HEK293F cells expressing alpha synuclein (% pSer129+ cells)",[2],< 5 nM
same,"IC50, inhibition of alpha synuclein aggregation induced by fibrils on mouse primary neurons (pSer129 alpha synuclein signal)",[2],< 4 nM
same,Kd,[3],15.1 nM
same,koff,[3],0.0174 s⁻¹
same,kon,[3],1.15e+06 M⁻¹ s⁻¹
same,Kd,[4],0.298 nM
same,koff,[4],0.000317 s⁻¹
same,kon,[4],1.07e+06 M⁻¹ s⁻¹
same,Kd,[10],0.166 nM
"VR6470 gL3-N33R; gH36-S56N-N102H (antibody, human IgG4 S228P, kappa, V domains shown, Full-length humanized human IgG4P) VH: EVQLLESGGGLVQPGGSLRLSCAVSGIDLSSHDMYWVRQAPGKGLEYIGAIYASGNTYYASWAKGRFTISRDSSKNTLYLQMNSLRAEDTAVYYCARIHYGHSGGLWGQGTLVTVSS VL: DIQMTQSPSSLSASVGDRVTITCQASQSVYKNRYLAWFQQKPGKAPKQLIYGASTLASGVPSRFSGSGSGTQFTLTISSLQPEDFATYYCAGYKGGRNDGFAFGGGTKVEIKR","IC50, inhibition of alpha synuclein aggregation induced by fibrils in HEK293F cells expressing alpha synuclein (% pSer129+ cells)",[2],< 5 nM
same,Kd,[3],1.31 nM
same,koff,[3],0.00648 s⁻¹
same,kon,[3],4.97e+06 M⁻¹ s⁻¹
same,Kd,[4],0.053 nM
same,koff,[4],0.000126 s⁻¹
same,kon,[4],2.39e+06 M⁻¹ s⁻¹
"VR6470 gL3; gH36-S56N-N102H (antibody, human IgG4 S228P, kappa, V domains shown, Full-length humanized human IgG4P) VH: EVQLLESGGGLVQPGGSLRLSCAVSGIDLSSHDMYWVRQAPGKGLEYIGAIYASGNTYYASWAKGRFTISRDSSKNTLYLQMNSLRAEDTAVYYCARIHYGHSGGLWGQGTLVTVSS VL: DIQMTQSPSSLSASVGDRVTITCQASQSVYKNNYLAWFQQKPGKAPKQLIYGASTLASGVPSRFSGSGSGTQFTLTISSLQPEDFATYYCAGYKGGRNDGFAFGGGTKVEIKR","IC50, inhibition of alpha synuclein aggregation induced by fibrils in HEK293F cells expressing alpha synuclein (% pSer129+ cells)",[2],< 5 nM
same,Kd,[3],4.1 nM
same,koff,[3],0.00488 s⁻¹
same,kon,[3],1.19e+06 M⁻¹ s⁻¹
same,Kd,[4],0.059 nM
same,koff,[4],7.44e-05 s⁻¹
same,kon,[4],1.25e+06 M⁻¹ s⁻¹
"VR6470 gL3; gH23-S56N-N102H (antibody, human IgG4 S228P, kappa, V domains shown, Full-length humanized human IgG4P) VH: EVQLLESGGGLVQPGGSLRLSCAVSGIDLSSHDMYWVRQAPGKGLEYIGAIYASGNTYYASWAKGRFTISRDNSKNTVYLQMNSLRAEDTAVYYCARIHYGHSGGLWGQGTLVTVSS VL: DIQMTQSPSSLSASVGDRVTITCQASQSVYKNNYLAWFQQKPGKAPKQLIYGASTLASGVPSRFSGSGSGTQFTLTISSLQPEDFATYYCAGYKGGRNDGFAFGGGTKVEIKR","IC50, inhibition of alpha synuclein aggregation induced by fibrils in HEK293F cells expressing alpha synuclein (% pSer129+ cells)",[2],< 5 nM
same,Kd,[3],4.62 nM
same,koff,[3],0.00445 s⁻¹
same,kon,[3],966000 M⁻¹ s⁻¹
same,Kd,[4],0.068 nM
same,koff,[4],7.08e-05 s⁻¹
same,kon,[4],1.04e+06 M⁻¹ s⁻¹
"VR6470 gL3-N33R; gH23-S56N-N102H (antibody, human IgG4 S228P, kappa, V domains shown, Full-length humanized human IgG4P) VH: EVQLLESGGGLVQPGGSLRLSCAVSGIDLSSHDMYWVRQAPGKGLEYIGAIYASGNTYYASWAKGRFTISRDNSKNTVYLQMNSLRAEDTAVYYCARIHYGHSGGLWGQGTLVTVSS VL: DIQMTQSPSSLSASVGDRVTITCQASQSVYKNRYLAWFQQKPGKAPKQLIYGASTLASGVPSRFSGSGSGTQFTLTISSLQPEDFATYYCAGYKGGRNDGFAFGGGTKVEIKR","IC50, inhibition of alpha synuclein aggregation induced by fibrils in HEK293F cells expressing alpha synuclein (% pSer129+ cells)",[2],< 5 nM
same,Kd,[3],1.71 nM
same,koff,[3],0.00594 s⁻¹
same,kon,[3],3.48e+06 M⁻¹ s⁻¹
same,Kd,[4],0.056 nM
same,koff,[4],0.000116 s⁻¹
same,kon,[4],2.07e+06 M⁻¹ s⁻¹
"Ac-SEEGYQDYEP-NH2 (peptide, UniProt P37840 129-138, looked up, synthetic 10-mer peptide) [129-138]",binding result,[11],no binding
"Ac-EGYQDYEPEA-OH (peptide, UniProt P37840 131-140, looked up, synthetic 10-mer peptide) [131-140]",binding result,[11],no binding
Ac-EEGAPQEGIL-NH2 (Synthetic peptide of human alpha synuclein) [AS104-113],binding result,[11],no binding
Ac-QEGILEDMPV-NH2 (Synthetic peptide of human alpha synuclein) [AS109-118],binding result,[11],no binding
Ac-GILEDMPVDP-NH2 (Synthetic peptide of human alpha synuclein) [AS111-120],binding result,[11],no binding
Ac-LEDMPVDPDN-NH2 (Synthetic peptide of human alpha synuclein) [AS113-122],binding result,[11],no binding
Ac-PVDPDNEAYE-NH2 [AS117-126],binding result,[11],no binding
Ac-DPDNEAYEMP-NH2 (Synthetic peptide of human alpha synuclein) [AS119-128],binding result,[11],no binding
Ac-MPSEEGYQDY-NH2 (Synthetic peptide of human alpha synuclein) [AS127-136],binding result,[11],no binding
Ac-EAYEMPSEEG-NH2 (Synthetic peptide of human alpha synuclein) [AS123-132],% inhibition,[12],37%
same,% inhibition,[13],54%
Ac-YEMPSEEGYQ-NH2 (Synthetic peptide of human alpha synuclein) [AS125-134],% inhibition,[12],34%
same,% inhibition,[13],52%
Ac-DNEAYEMPSE-NH2 (Synthetic peptide of human alpha synuclein) [AS121-130],% inhibition,[12],20%
same,% inhibition,[13],27%
"6470gL3gH35 (antibody, V domains shown) VH: EVQLLESGGGLVQPGGSLRLSCAVSGIDLSSHDMYWVRQAPGKGLEYIGAIYASGSTYYASWAKGRFTISKDSSKNTVYLQMNSLRAEDTAVYYCAKIHYGNSGGLWGQGTLVTVSS VL: DIQMTQSPSSLSASVGDRVTITCQASQSVYKNNYLAWFQQKPGKAPKQLIYGASTLASGVPSRFSGSGSGTQFTLTISSLQPEDFATYYCAGYKGGRNDGFAFGGGTKVEIKR",Kd,[10],5.28 nM
"6470gL6gH36 (antibody, V domains shown) VH: EVQLLESGGGLVQPGGSLRLSCAVSGIDLSSHDMYWVRQAPGKGLEYIGAIYASGSTYYASWAKGRFTISRDSSKNTLYLQMNSLRAEDTAVYYCARIHYGNSGGLWGQGTLVTVSS VL: DIQMTQSPSSLSASVGDRVTITCQASQSVYKNNYLAWFQQKPGKAPKSLIYGASTLASGVPSRFSGSGSGTQFTLTISSLQPEDFATYYCAGYKGGRNDGFAFGGGTKVEIKR",Kd,[10],0.377 nM
"6470gL8gH23 (antibody, V domains shown) VH: EVQLLESGGGLVQPGGSLRLSCAVSGIDLSSHDMYWVRQAPGKGLEYIGAIYASGSTYYASWAKGRFTISRDNSKNTVYLQMNSLRAEDTAVYYCARIHYGNSGGLWGQGTLVTVSS VL: DIQMTQSPSSLSASVGDRVTITCQASQSVYKNNYLAWFQQKPGKAPKQLIYGASTLASGVPSRFSGSGSGTDFTLTISSLQPEDFATYYCAGYKGGRNDGFAFGGGTKVEIKR",Kd,[10],0.246 nM
"6470gL8gH36 (antibody, V domains shown) VH: EVQLLESGGGLVQPGGSLRLSCAVSGIDLSSHDMYWVRQAPGKGLEYIGAIYASGSTYYASWAKGRFTISRDSSKNTLYLQMNSLRAEDTAVYYCARIHYGNSGGLWGQGTLVTVSS VL: DIQMTQSPSSLSASVGDRVTITCQASQSVYKNNYLAWFQQKPGKAPKQLIYGASTLASGVPSRFSGSGSGTDFTLTISSLQPEDFATYYCAGYKGGRNDGFAFGGGTKVEIKR",Kd,[10],0.198 nM
"6470gL3gH25 (antibody, V domains shown) VH: EVQLLESGGGLVQPGGSLRLSCAVSGIDLSSHDMYWVRQAPGKGLEWIGAIYASGSTYYASWAKGRFTISKDSSKNTVYLQMNSLRAEDTAVYYCARIHYGNSGGLWGQGTLVTVSS VL: DIQMTQSPSSLSASVGDRVTITCQASQSVYKNNYLAWFQQKPGKAPKQLIYGASTLASGVPSRFSGSGSGTQFTLTISSLQPEDFATYYCAGYKGGRNDGFAFGGGTKVEIKR",Kd,[14],76 nM

# Reference: US20210107971A1 (UCB, published 2021)
